Measurements reported in the Immune Epitope Database (IEDB).

Legend:
Test in all cases: IEDB peptide-MHC binding, purified MHC/competitive/fluorescence; filed as Kd, often an IC50 or EC50 that approximates it; ≥ and ≤ were set here for values at or beyond the usual limits of such assays
Details in all cases: source organism: Vibrio cholerae 2740-80
[1] = target: HLA-A*66:01
[2] = target: HLA-A*01:01
[3] = target: HLA-B*08:01
[4] = target: HLA-B*14:02
[5] = target: HLA-B*51:01
[6] = target: HLA-B*07:02
[7] = target: HLA-B*53:01

Measured: Kd

MGMEQTMSV
≥ 5 µM: [1] | [2] | [3] | [4] | [5] | [6] | [7]
